The values below come from US20180319873A1 (TAIPEI MEDICAL UNIVERSITY, published 2018).

For orientation: Kd means the concentration at which binding is half-saturated.

In test [1] the target is native CaENO1 of Candida albicans (alpha-enolase on the cell surface and in cell lysates) (Candida albicans) (UniProt P30575). As to the kind of experiment: flow cytometry on C. albicans SC 5314 cells, 100 ug antibody (negative control).
The target of test [2] is T1, mENO1 (purified recombinant mouse ENO1) (mouse, UniProt P17182 1-434, limits assumed).
T1 construct: not shown: His tag, 'expressed and purified in the same way' as His-CaENO1
As to the kind of experiment: Western blot on purified ENO1 proteins. For orientation: A western blot detects proteins with antibodies after separation by electrophoresis.

For test [3], the target named is T2, hENO1 (purified recombinant human ENO1) (human, UniProt P06733 1-434, limits assumed).
T2 construct: not shown: His tag, 'expressed and purified in the same way' as His-CaENO1
As to the kind of experiment: Western blot on purified ENO1 proteins.

In test [4] the target is T3, His-CaENO1 (recombinant Candida albicans alpha-enolase with His tag) (Candida albicans, UniProt P30575 1-440).
T3 construct: Expressed from pQE30-CaENO1 in E. coli BL21, purified on Ni resin, about 49 kDa; also called recombinant CaENO1 protein; purified CaENO1; not shown: His tag from the pQE30 vector
T3 sequence (looked up): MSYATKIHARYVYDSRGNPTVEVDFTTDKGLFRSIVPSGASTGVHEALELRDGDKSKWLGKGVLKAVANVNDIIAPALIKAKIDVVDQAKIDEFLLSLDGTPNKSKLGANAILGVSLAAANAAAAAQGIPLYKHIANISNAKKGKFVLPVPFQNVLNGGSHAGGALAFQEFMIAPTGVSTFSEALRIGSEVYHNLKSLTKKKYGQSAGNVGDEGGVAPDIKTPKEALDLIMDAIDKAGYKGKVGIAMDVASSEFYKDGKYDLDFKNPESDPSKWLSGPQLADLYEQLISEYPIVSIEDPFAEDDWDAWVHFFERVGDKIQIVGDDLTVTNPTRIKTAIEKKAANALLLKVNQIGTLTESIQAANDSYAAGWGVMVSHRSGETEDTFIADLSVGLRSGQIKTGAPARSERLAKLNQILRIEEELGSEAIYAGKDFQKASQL
The test is described as follows: ELISA, serial dilution of CaS1 scFv on coated His-CaENO1. (ELISA stands for enzyme-linked immunosorbent assay.)

Test [5] has as its target T3, His-CaENO1 (recombinant Candida …). The test is described as follows: ELISA, serial dilution of CaS1 scFv on coated recombinant CaENO1; concentration at 50% of OD.
Test [6] shares this target. The test is described as follows: competitive ELISA, serial dilution of free CaENO1 mixed with 1 µg/mL CaS1 scFv, then added to coated CaENO1; printed as KD of CaS1 scFv.
Test [7] has the same target. As to the kind of experiment: competitive ELISA, serial dilution of free His-CaENO1 mixed with 1 µg/mL CaS1, then added to coated His-CaENO1; printed as KD of CaS1 scFv.

T2 sequence (P06733 whole entry): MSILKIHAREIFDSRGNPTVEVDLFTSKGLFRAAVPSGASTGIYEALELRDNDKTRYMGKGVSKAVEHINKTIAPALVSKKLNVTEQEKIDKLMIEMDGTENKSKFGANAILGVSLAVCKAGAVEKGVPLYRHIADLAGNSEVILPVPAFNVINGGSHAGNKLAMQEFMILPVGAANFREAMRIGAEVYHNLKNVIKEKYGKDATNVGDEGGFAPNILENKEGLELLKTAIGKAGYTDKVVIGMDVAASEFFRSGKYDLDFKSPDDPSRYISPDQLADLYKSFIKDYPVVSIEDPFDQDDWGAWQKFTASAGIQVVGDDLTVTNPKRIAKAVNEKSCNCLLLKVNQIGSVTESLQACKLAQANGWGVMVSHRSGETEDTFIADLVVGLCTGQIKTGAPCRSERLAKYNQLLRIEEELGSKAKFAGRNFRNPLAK
T1 sequence (P17182 whole entry): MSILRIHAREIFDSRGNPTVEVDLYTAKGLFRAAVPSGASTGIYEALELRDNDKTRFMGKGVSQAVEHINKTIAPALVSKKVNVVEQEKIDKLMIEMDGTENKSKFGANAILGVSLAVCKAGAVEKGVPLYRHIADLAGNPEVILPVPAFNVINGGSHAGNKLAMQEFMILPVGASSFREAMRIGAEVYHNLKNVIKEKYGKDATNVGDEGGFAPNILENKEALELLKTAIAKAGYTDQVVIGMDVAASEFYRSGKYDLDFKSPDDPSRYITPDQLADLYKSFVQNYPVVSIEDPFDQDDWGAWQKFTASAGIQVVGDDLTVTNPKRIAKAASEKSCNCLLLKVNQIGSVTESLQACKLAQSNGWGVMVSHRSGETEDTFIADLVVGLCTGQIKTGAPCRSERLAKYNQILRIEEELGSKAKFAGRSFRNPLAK

For control scFv (irrelevant scFv), the % FITC fluorescence reaction in test [1] turned out to be 23%.

B1: CaS1 scFv (anti-CaENO1 scFv monoclonal antibody) (scFv)
scFv: ALTQPSSVSANLGGTVKITCSGGSGSYGWYQQKSPGSAPVTVIYSNNQRPSNIPSRFSGSPSGSTGTLTITGVQADDEAVYFCGSRDSSYVGVFGAGTTLTVLGQSSRSSTVTLDESGGGLQTPRGALSLVCKASGFTFIDYGMQWVRQAPGKGLEWVAGIGSSGSSTNYGAAVKGRATISRDDGQSTVRLQLNNLRAEDTGTYYCAKSAGGYCVNGAGCNGGSIDAWGHGTEVIVSS
notes: Chicken scFv from a phage library in pComb3X, expressed in E. coli, purified on Ni Sepharose; also called scFv CaS1; His-CaS1 scFv; not shown: His tag (and HA tag) from the pComb3X vector
On to B1, for which the binding result in test [2] and in test [3] was “binds” in each case. Besides, the Kd in test [4] stood at 18.8 nM; in test [5], 0.498 µg/mL; in test [6], 4.45 µg/mL; in test [7], 89 nM.
